Test results: the supplement of paper PMC11246515
± gives the standard deviation of the averaged measurements.

Assay: total protein half-life in vivo (active degradation + dilution); higher = more stable protein
[1] = E. coli NCM3722 delta-clpP delta-lon delta-hslV, growth: N-lim chemostat, doubling time 6 h
[2] = E. coli NCM3722 delta-clpP, growth: N-lim chemostat, doubling time 6 h
[3] = E. coli NCM3722 delta-hslV, growth: N-lim chemostat, doubling time 6 h
[4] = E. coli NCM3722 delta-smpB, growth: N-lim chemostat, doubling time 6 h
[5] = wild type E. coli NCM3722, growth: C-lim chemostat, doubling time 12 h
[6] = wild type E. coli NCM3722, growth: N-lim chemostat, doubling time 6 h
[7] = wild type E. coli NCM3722, growth: N-lim chemostat, doubling time 12 h
[8] = wild type E. coli NCM3722, growth: P-lim chemostat, doubling time 6 h
[9] = wild type E. coli NCM3722, growth: P-lim chemostat, doubling time 12 h
[10] = wild type E. coli NCM3722, growth: C-lim chemostat, doubling time 3 h
[11] = E. coli NCM3722 delta-lon, growth: N-lim chemostat, doubling time 6 h
[12] = wild type E. coli NCM3722, growth: C-lim chemostat, doubling time 6 h

Row | Sequence | total protein half-life in vivo [1] | total protein half-life in vivo [2] | total protein half-life in vivo [3] | total protein half-life in vivo [4] | total protein half-life in vivo [5] | total protein half-life in vivo [6] | total protein half-life in vivo [7] | total protein half-life in vivo [8] | total protein half-life in vivo [9] | total protein half-life in vivo [10] | total protein half-life in vivo [11] | total protein half-life in vivo [12]
1 | MIIGNIHNLQPWLPQELRQAIEHIKAHVTAETPKGKHDIEGNRLFYLISEDMTEPYEARRAEYHARYLDIQIVLKGQEGMTFSTQPAGAPDTDWLADKDIAFLPEGVDEKTVILNEGDFVVFYPGEVHKPLCAVGAPAQVRKAVVKMLMA [P0AF96] | 4.25 ± 0.25 h | 4.23 ± 2.1 h | 3.43 h | 3.75 ± 0.1 h | 8.12 ± 0.22 h | 3.18 ± 0.1 h | 5.175 ± 0.0007 h | 4.55 ± 0.89 h | 10.1 ± 0.29 h |  |  | 
2 | MMKFKKCLLPVAMLASFTLAGCQSNADDHAADVYQTDQLNTKQETKTVNIISILPAKVAVDNSQNKRNAQAFGALIGAVAGGVIGHNVGSGSNSGTTAGAVGGGAVGAAAGSMVNDKTLVEGVSLTYKEGTKVYTSTQVGKECQFTTGLAVVITTTYNETRIQPNTKCPEKS |  |  |  | 2.3 h |  | 2.73 h |  |  |  | 1.87 h |  | 
3 | MLAQLTISNFAIVRELEIDFHSGMTVITGETGAGKSIAIDALGLCLGGRAEADMVRTGAARADLCARFSLKDTPAALRWLEENQLEDGHECLLRRVISSDGRSRGFINGTAVPLSQLRELGQLLIQIHGQHAHQLLTKPEHQKFLLDGYANETSLLQEMTARYQLWHQSCRDLAHHQQLSQERAARAELLQYQLKELNEFNPQPGEFEQIDEEYKRLANSGQLLTTSQNALALMADGEDANLQSQLYTAKQLVSELIGMDSKLSGVLDMLEEATIQIAEASDELRHYCDRLDLDPNRLFELEQRISKQISLARKHHVSPEALPQYYQSLLEEQQQLDDQADSQETLALAVTKHHQQALEIARALHQQRQQYAEELAQLITDSMHALSMPHGQFTIDVKFDEHHLGADGADRIEFRVTTNPGQPMQPIAKVASGGELSRIALAIQVITARKMETPALIFDEVDVGISGPTAAVVGKLLRQLGESTQVMCVTHLPQVAGCGHQHYFVSKETDGAMTETHMQSLNKKARLQELARLLGGSEVTRNTLANAKELLAA | 5.03 ± 0.093 h | 3.53 ± 0.12 h |  |  |  |  |  |  | 2.48 h |  |  | 
4 | MSEVEFSHEYWMRHALTLAKRAWDEREVPVGAVLVHNNRVIGEGWNRPIGRHDPTAHAEIMALRQGGLVMQNYRLIDATLYVTLEPCVMCAGAMIHSRIGRVVFGARDAKTGAAGSLMDVLHHPGMNHRVEITEGILADECAALLSDFFRMRRQEIKAQKKAQSSTD | 5.35 ± 0.49 h |  | > 8 h |  |  |  |  | > 8 h | 10.7 ± 0.33 h |  | 4.63 h | 
5 | MSEMIYGIHAVQALLERAPERFQEVFILKGREDKRLLPLIHALESQGVVIQLANRQYLDEKSDGAVHQGIIARVKPGRQYQENDLPDLIASLDQPFLLILDGVTDPHNLGACLRSADAAGVHAVIVPKDRSAQLNATAKKVACGAAESVPLIRVTNLARTMRMLQEENIWIVGTAGEADHTLYQSKMTGRLALVMGAEGEGMRRLTREHCDELISIPMAGSVSSLNVSVATGICLFEAVRQRS | 5.18 ± 0.29 h | 4.81 ± 0.49 h | 5.39 ± 0.28 h | 4.69 ± 0.23 h | 10.3 ± 0.25 h | 5.17 ± 0.15 h | 9.48 ± 0.31 h | 5.37 ± 0.4 h | 11.5 ± 0.28 h | 2.73 ± 0.46 h | 5.55 ± 0.52 h | 5.83 ± 0.66 h
6 | MNKILLVDDDRELTSLLKELLEMEGFNVIVAHDGEQALDLLDDSIDLLLLDVMMPKKNGIDTLKALRQTHQTPVIMLTARGSELDRVLGLELGADDYLPKPFNDRELVARIRAILRRSHWSEQQQNNDNGSPTLEVDALVLNPGRQEASFDGQTLELTGTEFTLLYLLAQHLGQVVSREHLSQEVLGKRLTPFDRAIDMHISNLRRKLPDRKDGHPWFKTLRGRGYLMVSAS [P0AE88] | 5.73 ± 0.89 h | 4.96 ± 0.36 h | 4.848 ± 0.016 h | 5.11 ± 0.091 h | 11.4 ± 0.69 h | 6 ± 1.4 h | 8.76 ± 0.57 h | 6.01 ± 0.11 h | 10.9 ± 0.17 h | 3.28 ± 0.5 h |  | 5.44 ± 0.21 h
7 | MARFVVLVIDSFGVGAMKDVTLVRPQDAGANTCGHILSQLPHLQLPTLETLGLINALGYAPGDMQPSDSATWGVAELQHEGGDTFMGHQEILGTRPLPPLRMPFRDVIDRVEQALVSAGWQVERRGDDLQFLWVNQAVAIGDNLEADLGQVYNITANLSVISFDDAIKIGRIVREQVQVGRVITFGGLLTDSQRILDAAESKEGRFIGINAPRSGAYDNGFQVVHMGYGVDEKVQVPQKLYEAGVPTVLVGKVADIVNNPYGVSWQNLVDSQRIMDITLNEFNTHPTAFICTNIQETDLAGHAEDVARYAERLQVVDRNLARLVEAMQPDDCLVVMADHGNDPTIGHSHHTREVVPVLVYQQGMIATQLGVRTTLSDVGATVCEFFRAPPPQNGRSFLSSLRFAGDTL | 4.67 h |  |  |  |  |  |  |  |  |  |  | 
8 | MSHPALTQLRALRYCKEIPALDPQLLDWLLLEDSMTKRFEQQGKTVSVTMIREGFVEQNEIPEELPLLPKESRYWLREILLCADGEPWLAGRTVVPVSTLSGPELALQKLGKTPLGRYLFTSSTLTRDFIEIGRDAGLWGRRSRLRLSGKPLLLTELFLPASPLY | 4.9 ± 0.4 h | 2.28 ± 0.017 h | 3.04 ± 0.035 h | 2.14 ± 0.061 h | 7.06 ± 0.53 h | 3.15 ± 0.3 h | 4.66 ± 0.034 h | 4.77 ± 0.55 h | 8.85 ± 0.47 h | 2.41 ± 0.13 h | 3.5 ± 0.31 h | 4.27 ± 0.27 h
9 | MPLLKLWAGSLVMLAAVSLPLQAASPVKVGSKIDTEGALLGNIILQVLESHGVPTVNKVQLGTTPVVRGAITSGELDIYPEYTGNGAFFFKDENDAAWKNAQQGYEKVKKLDSEHNKLIWLTPAPANNTWTIAVRQDVAEKNKLTSLADLSRYLQEGGTFKLAASAEFIERADALPAFEKAYGFKLGQDQLLSLAGGDTAVTIKAAAQQTSGVNAAMAYGTDGPVAALGLQTLSDPQGVQPIYAPAPVVRESVLREYPQMAQWLQPVFASLDAKTLQQLNASIAVEGLDAKKVAADYLKQKGWTK | 4.32 ± 0.22 h | 5 ± 0.74 h | 6.28 ± 0.2 h | 5.47 ± 0.21 h | 9.88 ± 1.8 h | 5.95 ± 0.34 h | 12 ± 0.96 h | 6.08 ± 0.75 h | 12 ± 0.14 h | 3.08 ± 0.17 h | 7.16 ± 0.13 h | 5.7 ± 0.057 h
